Results on two molecules are retold here after patent EP2287285A2 (UAB RESEARCH FOUNDATION, dated 2011).

Assay [1] addresses T1, DR4/hIgG1 (TRAIL-R1) fusion protein (human, UniProt O00220 24-239, limits assumed).
T1 construct: also called DR4-Ig
Nature of the assay: ELISA on plates coated with 2 µg/ml DR4-Ig, HRP anti-Flag detection. On the technique in general: An ELISA detects its analyte on a solid surface through an enzyme-linked reagent.

Assay [2] deals with T2, TRAIL-R3 (DcR-1)/hIgG1 fusion protein (human, UniProt O14798 26-236, limits assumed).
T2 sequence (looked up): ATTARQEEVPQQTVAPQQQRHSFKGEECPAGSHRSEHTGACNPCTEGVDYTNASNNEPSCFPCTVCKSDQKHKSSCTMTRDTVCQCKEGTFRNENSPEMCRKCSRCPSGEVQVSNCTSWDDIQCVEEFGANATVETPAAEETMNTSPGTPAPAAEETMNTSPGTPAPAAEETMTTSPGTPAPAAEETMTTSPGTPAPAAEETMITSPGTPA
Description: Western blot, 0.5 µg of each protein.

Assay [3] concerns the target T3, TRAIL-R4 (DcR-2)/hIgG1 fusion protein (human, UniProt Q9UBN6 56-211, limits assumed).
T3 sequence (looked up): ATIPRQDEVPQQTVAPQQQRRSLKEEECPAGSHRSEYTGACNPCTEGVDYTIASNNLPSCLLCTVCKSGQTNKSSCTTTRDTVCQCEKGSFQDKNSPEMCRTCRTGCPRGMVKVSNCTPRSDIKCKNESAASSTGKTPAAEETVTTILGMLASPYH
Nature of the assay: Western blot, 0.5 µg of each protein.

Assay [4] deals with T4, CD95/hIgG1 (soluble form of human Fas) (human, UniProt P25445 26-173, limits assumed).
T4 construct: Provided by Amgen; also called Fas (CD95)
T4 sequence (looked up): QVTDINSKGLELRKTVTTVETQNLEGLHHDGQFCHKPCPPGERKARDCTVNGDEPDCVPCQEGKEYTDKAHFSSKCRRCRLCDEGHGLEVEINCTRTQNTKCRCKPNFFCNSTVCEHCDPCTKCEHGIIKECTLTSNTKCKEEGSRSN
Nature of the assay: Western blot, 0.5 µg of each protein. (Immunoblotting shows a protein as a band on a membrane.)

In assay [5] the target is T5, soluble TNFRI (soluble form of human TNFR1) (human, UniProt P19438 41-201, limits assumed).
T5 construct: Provided by Amgen; an Fc part is therefore uncertain and not written; also called TNF receptor I
T5 sequence (looked up): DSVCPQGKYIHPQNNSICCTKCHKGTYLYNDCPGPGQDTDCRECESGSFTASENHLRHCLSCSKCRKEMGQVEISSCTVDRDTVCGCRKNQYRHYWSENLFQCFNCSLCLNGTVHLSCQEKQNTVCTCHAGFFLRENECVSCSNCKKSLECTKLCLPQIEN
Nature of the assay: Western blot, 0.5 µg of each protein.

Assay [6] has as its target T6, human DR4, full length, on the cell surface (Cos-7 cells transfected with full-length DR4 cDNA); human cell … (human, UniProt O00220 24-468).
T6 construct: whole, on cells; also called cell surface DR4
Nature of the assay: flow cytometry of transfected Cos-7 cells (Fig. 1c). (In general: A flow cytometer gives signals particle by particle.)

Assay [7] has as its target T7, human DR5, full length, on the cell surface (Cos-7 cells transfected with full-length human DR5 cDNA); human … (human, UniProt O14763 56-440).
T7 construct: whole, on cells; also called cell surface DR5; human DR5 antigen
Description: radioisotope labeled TRA-8 on a breast cancer cell line in vitro.

Assay [8] addresses T1, DR4/hIgG1 (TRAIL-R1) fusion protein. Description: ELISA on plates coated with 2 µg/ml DR4-Ig (Fig. 1b, middle panel).
Assay [9] has as its target T8, murine DR5/hIgG1 fusion protein (murine; human, UniProt Q9QZM4 53-180, limits assumed).
T8 construct: also called murine homologue of DR5
Description: ELISA, absorbance 450 nm/650 nm (Fig. 1a, column 8 of lower panel).

For assay [10], the target named is T9, human DR5/hIgG1 fusion protein (immunogen); residues 1-180 of the extracellular portion of DR5 fused to the … (human, UniProt O14763 56-180).
T9 construct: range 1-180; also called DR5-IgG; DR5-IgG1
Nature of the assay: ELISA on coated DR5-Ig, one-site binding model, non-linear regression.

B1: soluble recombinant human TRAIL (Alexis): extracellular domain of human TRAIL (aa residues 95 to 281) fused at the N-terminus to a FLAG-tag and an 8 amino acid … (ligand, UniProt P50591 95-281, looked up)
chain: TSEETISTVQEKQQNISPLVRERGPQRVAAHITGTRGRSNTLSSPNSKNEKALGRKINSWESSRSGHSFLSNLHLRNGELVIHEKGFYYIYSQTYFRFQEEIKENTKNDKQMVQYIYKYTSYPDPILLMKSARNSCWSKDAEYGLYSIYQGGIFELKENDRIFVSVTNEHLIDMDHEASFFGAFLVG
notes: range 95-281; Bought reagent; also called TRAIL-FLAG; soluble TRAIL; not shown: FLAG tag; 8 amino acid linker peptide
Take B1: the binding result in [1] is “binds”.

B2: TRA-8 monoclonal anti-human DR5 antibody (mouse-mouse hybridoma TRA-8, ATCC PTA-1428) (antibody, mouse IgG1, kappa, V domains shown)
VH: EVMLVESGGGLVKPGGSLKLSCAASGFTFSSYVMSWVRQTPEKRLEWVATISSGGSYTYYPDSVKGRFTISRDNAKNTLYLQMSSLRSEDTAMYYCARRGDSMITTDYWGQGTTLTVSS
VL: DIVMTQSHKFMSTSVGDRVSITCKASQDVGTAVAWYQQKPGQSPKLLIYWASTRHTGVPDRFTGSGSGTDFTLTISNVQSEDLADYFCQQYSSYRTFGGGTKLEIKR
notes: also called anti-DR5 antibody (clone: TRA-8)
The Kd is a measure of binding affinity in units of concentration. For the molecule B2, the binding result in assay [2] is recorded as “no binding (tested: 1 µg/ml)”; in [3] it was “no binding (tested: 1 µg/ml)”; in assay [4], “no binding (tested: 1 µg/ml)”; in [5], “no binding (tested: 1 µg/ml)”; in [6], “no binding”; in assay [8], “no binding”. For the same molecule, the binding result in [9] is “no binding”. In addition, the Kd in assay [7] and in assay [10] was 3 nM each time.
